{"source": "FireProtDB (doi:10.1016/s0014-5793(99)01395-2)", "proteins": {"B1": {"name": "Endolysin wild type, P03706 (protein)", "chain": "MVEINNQRKAFLDMLAWSEGTDNGRQKTRNHGYDVIVGGELFTDYSDHPRKLVTLNPKLKSTGAGRYQLLSRWWDAYRKQLGLKDFSPKSQDAVALQQIKERGALPMIDRGDIRQAIDRCSNIWASLPGAGYGQFEHKADSLIAKFKEAGGTVREIDV"}}, "settings": "Escherichia phage lambda, pH 7, Thermal, Fluorescence, phosphate buffer 100 mM, reversible: yes, whole UniProt chain shown", "data": [{"protein": "B1", "values": [{"measurement": "unfolding free energy", "setting": "25 °C", "value": 7.1, "unit": "kcal/mol"}, {"measurement": "Tm", "value": 52.3, "unit": "°C"}, {"measurement": "unfolding enthalpy (van 't Hoff)", "value": 113, "unit": "kcal/mol"}]}]}
